# In US12698507B2, “Methods and compositions for conferring and/or enhancing herbicide tolerance using protoporphyrinogen IX oxidase of various cyanobacteria or variant thereof” (FarmHannong Co., Ltd., priority 2019, dated 2026):
# B1: CyPPO19 A167L + V305M + I408R + F360M: variant of CyPPO19 PPO protein (SEQ ID NO: 1) (protein)
# chain: MSEVDVAIVGGGLSGLSLAWRLQQSAPQYSVVLLEASDRLGGNITTQTAEGFVWELGPNSFAPTPALLQLIAEVGLQSELIRGDRHLPRYIYWRGQLYPLQPTRPLALATSNLLSPWGKVRAALGALGFVPPYLGSGDESVNSFFRRHLGQEVAERLVAPFVSGVYLGDPQQLSAAAAFRRIAQLEKLGGGLIAGALHLRRQQAPKPKPPTSVQMRPGELGSFKEGLAALPRAIAQQLKAPIHLQTPVQEITPDPKGGYLLRSGEQTWRARSVVLATPAYQTAELVAPFQPAIARVLATIPYPTMACVVLAYPAGLGRSVRPGFGVLIPRSQGIRTLGTIWSSCLFPQRTPAGWQVFTSMIGGATDPDLASLSEEAIVQQVQQDLNRLLDLPAAKARLLGMKVWRRARPQYMVGYPEQWQQVTHALSQTPGLFLCSNYAEGVALGDRVEHGNRTAAAVAAYLSGGQP
# modifications: Synthetic_PPO of Thermosynechococcus elongatus PKUAC-SCTE542 (comprising GenBank No. CP032152.1)
# B2: CyPPO19 V165S + F360L: variant of CyPPO19 PPO protein (SEQ ID NO: 1) (protein)
# chain: MSEVDVAIVGGGLSGLSLAWRLQQSAPQYSVVLLEASDRLGGNITTQTAEGFVWELGPNSFAPTPALLQLIAEVGLQSELIRGDRHLPRYIYWRGQLYPLQPTRPLALATSNLLSPWGKVRAALGALGFVPPYLGSGDESVNSFFRRHLGQEVAERLVAPFVSGSYAGDPQQLSAAAAFRRIAQLEKLGGGLIAGALHLRRQQAPKPKPPTSVQMRPGELGSFKEGLAALPRAIAQQLKAPIHLQTPVQEITPDPKGGYLLRSGEQTWRARSVVLATPAYQTAELVAPFQPAIARVLATIPYPTVACVVLAYPAGLGRSVRPGFGVLIPRSQGIRTLGTIWSSCLFPQRTPAGWQVFTSLIGGATDPDLASLSEEAIVQQVQQDLNRLLDLPAAKARLLGMKVWRRAIPQYMVGYPEQWQQVTHALSQTPGLFLCSNYAEGVALGDRVEHGNRTAAAVAAYLSGGQP
# modifications: Synthetic_PPO of Thermosynechococcus elongatus PKUAC-SCTE542 (comprising GenBank No. CP032152.1)
# B3: CyPPO19 V305L + L327T + I408W + F360V: variant of CyPPO19 PPO protein (SEQ ID NO: 1); printed 305L in Table 9 (protein)
# chain: MSEVDVAIVGGGLSGLSLAWRLQQSAPQYSVVLLEASDRLGGNITTQTAEGFVWELGPNSFAPTPALLQLIAEVGLQSELIRGDRHLPRYIYWRGQLYPLQPTRPLALATSNLLSPWGKVRAALGALGFVPPYLGSGDESVNSFFRRHLGQEVAERLVAPFVSGVYAGDPQQLSAAAAFRRIAQLEKLGGGLIAGALHLRRQQAPKPKPPTSVQMRPGELGSFKEGLAALPRAIAQQLKAPIHLQTPVQEITPDPKGGYLLRSGEQTWRARSVVLATPAYQTAELVAPFQPAIARVLATIPYPTLACVVLAYPAGLGRSVRPGFGVTIPRSQGIRTLGTIWSSCLFPQRTPAGWQVFTSVIGGATDPDLASLSEEAIVQQVQQDLNRLLDLPAAKARLLGMKVWRRAWPQYMVGYPEQWQQVTHALSQTPGLFLCSNYAEGVALGDRVEHGNRTAAAVAAYLSGGQP
# modifications: Synthetic_PPO of Thermosynechococcus elongatus PKUAC-SCTE542 (comprising GenBank No. CP032152.1)
# B4: CyPPO19 V165S + F360T: variant of CyPPO19 PPO protein (SEQ ID NO: 1) (protein)
# chain: MSEVDVAIVGGGLSGLSLAWRLQQSAPQYSVVLLEASDRLGGNITTQTAEGFVWELGPNSFAPTPALLQLIAEVGLQSELIRGDRHLPRYIYWRGQLYPLQPTRPLALATSNLLSPWGKVRAALGALGFVPPYLGSGDESVNSFFRRHLGQEVAERLVAPFVSGSYAGDPQQLSAAAAFRRIAQLEKLGGGLIAGALHLRRQQAPKPKPPTSVQMRPGELGSFKEGLAALPRAIAQQLKAPIHLQTPVQEITPDPKGGYLLRSGEQTWRARSVVLATPAYQTAELVAPFQPAIARVLATIPYPTVACVVLAYPAGLGRSVRPGFGVLIPRSQGIRTLGTIWSSCLFPQRTPAGWQVFTSTIGGATDPDLASLSEEAIVQQVQQDLNRLLDLPAAKARLLGMKVWRRAIPQYMVGYPEQWQQVTHALSQTPGLFLCSNYAEGVALGDRVEHGNRTAAAVAAYLSGGQP
# modifications: Synthetic_PPO of Thermosynechococcus elongatus PKUAC-SCTE542 (comprising GenBank No. CP032152.1)
# B5: CyPPO19 A167C + F360I: variant of CyPPO19 PPO protein (SEQ ID NO: 1) (protein)
# chain: MSEVDVAIVGGGLSGLSLAWRLQQSAPQYSVVLLEASDRLGGNITTQTAEGFVWELGPNSFAPTPALLQLIAEVGLQSELIRGDRHLPRYIYWRGQLYPLQPTRPLALATSNLLSPWGKVRAALGALGFVPPYLGSGDESVNSFFRRHLGQEVAERLVAPFVSGVYCGDPQQLSAAAAFRRIAQLEKLGGGLIAGALHLRRQQAPKPKPPTSVQMRPGELGSFKEGLAALPRAIAQQLKAPIHLQTPVQEITPDPKGGYLLRSGEQTWRARSVVLATPAYQTAELVAPFQPAIARVLATIPYPTVACVVLAYPAGLGRSVRPGFGVLIPRSQGIRTLGTIWSSCLFPQRTPAGWQVFTSIIGGATDPDLASLSEEAIVQQVQQDLNRLLDLPAAKARLLGMKVWRRAIPQYMVGYPEQWQQVTHALSQTPGLFLCSNYAEGVALGDRVEHGNRTAAAVAAYLSGGQP
# modifications: Synthetic_PPO of Thermosynechococcus elongatus PKUAC-SCTE542 (comprising GenBank No. CP032152.1)
# B6: CyPPO19 A167L + F360M: variant of CyPPO19 PPO protein (SEQ ID NO: 1) (protein)
# chain: MSEVDVAIVGGGLSGLSLAWRLQQSAPQYSVVLLEASDRLGGNITTQTAEGFVWELGPNSFAPTPALLQLIAEVGLQSELIRGDRHLPRYIYWRGQLYPLQPTRPLALATSNLLSPWGKVRAALGALGFVPPYLGSGDESVNSFFRRHLGQEVAERLVAPFVSGVYLGDPQQLSAAAAFRRIAQLEKLGGGLIAGALHLRRQQAPKPKPPTSVQMRPGELGSFKEGLAALPRAIAQQLKAPIHLQTPVQEITPDPKGGYLLRSGEQTWRARSVVLATPAYQTAELVAPFQPAIARVLATIPYPTVACVVLAYPAGLGRSVRPGFGVLIPRSQGIRTLGTIWSSCLFPQRTPAGWQVFTSMIGGATDPDLASLSEEAIVQQVQQDLNRLLDLPAAKARLLGMKVWRRAIPQYMVGYPEQWQQVTHALSQTPGLFLCSNYAEGVALGDRVEHGNRTAAAVAAYLSGGQP
# modifications: Synthetic_PPO of Thermosynechococcus elongatus PKUAC-SCTE542 (comprising GenBank No. CP032152.1)
# System: PPO-deficient BT3 E. coli (ΔPPO)
# Assay: PPO-inhibiting herbicide tolerance test of PPO variants in E. coli (growth on herbicide-containing LB agar)
# Format: cell-based
# Conditions: CyPPO19 variants in BT3 (ΔPPO) E. coli; LB agar with 0 to 2,000 μM herbicide, 37° C., dark, 16-20 hours
# Procedure, shortened: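 Transformants were grown to OD600 0.5–1, adjusted to OD600=0.5 and spotted as 10-fold dilutions on LB agar with ampicillin (100 μg/mL) and 0 to 2,000 μM herbicide. Plates were kept at 37° C in the dark for 16-20 hours; growth was scored relative to wild type, one '+' per 10-fold resistance.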
Molecule,"tolerance level relative to wild type, Carfentrazone","tolerance level relative to wild type, Flumioxazin","tolerance level relative to wild type, Fomesafen","tolerance level relative to wild type, Oxyfluorfen","tolerance level relative to wild type, Saflufenacil","tolerance level relative to wild type, Sulfentrazone","tolerance level relative to wild type, Tiafenacil"
B1,+ (‘+’ per each 10-fold resistance),+++++ (until ‘+++++’ as maximal resistance),+++ (‘+’ per each 10-fold resistance),+++ (‘+’ per each 10-fold resistance),+++++ (until ‘+++++’ as maximal resistance),+++++ (until ‘+++++’ as maximal resistance),+++++ (until ‘+++++’ as maximal resistance)
B2,+ (‘+’ per each 10-fold resistance),++++ (‘+’ per each 10-fold resistance),++ (‘+’ per each 10-fold resistance),++ (‘+’ per each 10-fold resistance),++++ (‘+’ per each 10-fold resistance),+++ (‘+’ per each 10-fold resistance),++++ (‘+’ per each 10-fold resistance)
B3,+ (‘+’ per each 10-fold resistance),+++++ (until ‘+++++’ as maximal resistance),+++ (‘+’ per each 10-fold resistance),+++ (‘+’ per each 10-fold resistance),+++++ (until ‘+++++’ as maximal resistance),+++++ (until ‘+++++’ as maximal resistance),+++++ (until ‘+++++’ as maximal resistance)
B4,+ (‘+’ per each 10-fold resistance),+++ (‘+’ per each 10-fold resistance),+ (‘+’ per each 10-fold resistance),+ (‘+’ per each 10-fold resistance),+++ (‘+’ per each 10-fold resistance),++ (‘+’ per each 10-fold resistance),++++ (‘+’ per each 10-fold resistance)
B5,+ (‘+’ per each 10-fold resistance),++++ (‘+’ per each 10-fold resistance),+ (‘+’ per each 10-fold resistance),+ (‘+’ per each 10-fold resistance),+++ (‘+’ per each 10-fold resistance),++ (‘+’ per each 10-fold resistance),++++ (‘+’ per each 10-fold resistance)
B6,+ (‘+’ per each 10-fold resistance),++++ (‘+’ per each 10-fold resistance),++ (‘+’ per each 10-fold resistance),+ (‘+’ per each 10-fold resistance),++++ (‘+’ per each 10-fold resistance),++ (‘+’ per each 10-fold resistance),++++ (‘+’ per each 10-fold resistance)
